Key:
[1] = molecular target: T1, human proprotein convertase subtilisin/kexin type 9, his tagged antigen (Homo sapiens, UniProt Q8NBP7); experiment: SPR; lysate kinetics screening; hPCSK9-his immobilised on CM5 chip (~18000 RU); supernatants of TES lysates of clones flowed over; 25 °C; binding 120 s, dissociation 140 s; binding value read at ~120 s, stability value at ~135 s; Biacore T200; settings: one partner purified
T1 construct: human PCSK9; also called hPCSK9; PCSK9; source: bought: Sinobiological, China, Cat# 29698-H08H
T1 sequence (Q8NBP7 31-692): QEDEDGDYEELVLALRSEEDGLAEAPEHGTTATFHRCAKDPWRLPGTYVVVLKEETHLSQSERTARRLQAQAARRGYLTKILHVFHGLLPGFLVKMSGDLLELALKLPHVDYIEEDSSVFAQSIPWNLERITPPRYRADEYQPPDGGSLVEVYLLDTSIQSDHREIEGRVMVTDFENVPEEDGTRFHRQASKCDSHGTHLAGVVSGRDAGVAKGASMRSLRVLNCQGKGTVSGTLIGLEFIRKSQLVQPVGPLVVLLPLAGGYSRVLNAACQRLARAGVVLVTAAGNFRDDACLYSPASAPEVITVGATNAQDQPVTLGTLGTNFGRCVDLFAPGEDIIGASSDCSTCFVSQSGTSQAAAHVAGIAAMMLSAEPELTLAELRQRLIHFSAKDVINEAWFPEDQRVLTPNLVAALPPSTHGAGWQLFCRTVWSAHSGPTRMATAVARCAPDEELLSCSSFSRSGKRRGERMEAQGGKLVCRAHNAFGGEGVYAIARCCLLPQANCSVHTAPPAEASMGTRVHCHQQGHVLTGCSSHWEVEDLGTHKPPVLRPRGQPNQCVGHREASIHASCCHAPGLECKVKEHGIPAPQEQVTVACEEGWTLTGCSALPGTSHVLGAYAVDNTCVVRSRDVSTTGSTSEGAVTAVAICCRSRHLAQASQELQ

[2] = molecular target: T1, human proprotein convertase …; experiment: SPR; hPCSK9-his on CM5 chip (~800 RU); 6 or 7-point two-fold dilutions of the VHH-based proteins injected; 25 °C; global fit with floating Rmax; Biacore T200; settings: both partners purified

Row | Binder | binding value (RU) [1] | stability value (RU) [1] | Kd [2] | koff [2] | kon [2]
1 | VHH-B11 (VHH, llama anti-hPCSK9 VHH from an immune phage library; 17 kDa on SDS-PAGE; also called monovalent VHH-B11; monovalency VHH-B11; source: E. coli, supernatant of TES lysate (screening); E. coli induced by IPTG, and Pichia pastoris X33, purified (Histrap FF column)) VHH: EVQLVESGGGSVQAGGSLRLSCTVSGYTYSSNCMGWFRQAPGKEHEGVASIYIGGGSTYYADSVKGRFTISQDNAKNTVYLQMNSLKPEDTAMYYCAVGCQGLVDFGYWDQGTQVTVSS | 409 RU | 472 RU | 8.69 nM | 0.00235 s⁻¹ | 271000 M⁻¹ s⁻¹
2 | VHH-H12 (VHH, llama anti-hPCSK9 VHH from an immune phage library; source: E. coli, supernatant of TES lysate (screening); E. coli induced by IPTG, and Pichia pastoris X33, purified (Histrap FF column)) VHH: GGGLVQAGGSLRLSCAASRSTFSGYAMAWFRQAPGKEREFVACIEREIPGHPAWSGLTYYADSKKGRFTISRDNAKNTVYLQMNSLKPEDTAVYYCAAGLKYPAQKHYDYDYWGQGTQVTVPS | 272 RU | 373 RU | 704 nM | 0.00524 s⁻¹ | 7440 M⁻¹ s⁻¹
3 | VHH-G8 (VHH, llama anti-hPCSK9 VHH from an immune phage library; source: E. coli, supernatant of TES lysate (screening); E. coli induced by IPTG, and Pichia pastoris X33, purified (Histrap FF column)) VHH: DVQLVESGGGSVQAGGSLTLSCVVSGYRGQKICTGWFRQFPGMEREAVARILPRGPNTQYTDSVKGRFTISQDAAKNTVNLQMSSLKPKDTAMYYCAQGWGGASDWALQPRRYNYWGQGTQVTVSS | 132 RU | 160 RU | 73 nM | 0.0114 s⁻¹ | 162000 M⁻¹ s⁻¹
4 | VHH-A6 (VHH, llama anti-hPCSK9 VHH from an immune phage library; source: E. coli, supernatant of TES lysate (screening); E. coli induced by IPTG, and Pichia pastoris X33, purified (Histrap FF column)) VHH: PGAAAGVGGGSVQAGGSLRLSCAASRYTDRTRCIAWFRQVPGKEREGVACLDRAGGQSAYADSAKGRFTVSQDNAGNTVYLQMDNLIPEDSAMYYCAAAGVGQWYTCLQKFIRDKRSFANWGQGTQVTVSS | 166 RU | 239 RU | 29 nM | 0.000447 s⁻¹ | 15400 M⁻¹ s⁻¹

Reference: article PMC7018876, “The novel llama-human chimeric antibody has potent effect in lowering LDL-c levels in hPCSK9 transgenic rats” (Clinical and Translational Medicine, 2020)
